Results published in PMC3030945 (The Journal of Membrane Biology, 2010).

Assays:
[1] = various methods, mole-fraction partition coefficients, ref Beschiaschvili and Baeuerle 1991, Kuchinka and Seelig 1989, Ladokhin et al. 2000, Ladokhin and White 1999, Schwarz and Beschiaschvili 1989, Vogel 1981; cited from earlier work
[2] = Isothermal titration calorimetry: enthalpy of melittin partitioning into LUVs; type: physicochemical; conditions: for −TΔS: from ΔG = ΔH − TΔS, ± joint confidence limits
[3] = CD titration of melittin with SUVs: free energy of partitioning; type: physicochemical; conditions: 5 mM lipid, estimated from measured partitioning free energy ΔG
[4] = CD spectroscopy: helical content of membrane-bound melittin; type: physicochemical; conditions: for peptide helical fraction f α: 25°C, CD molar ellipticity at 222 nm
[5] = Isothermal titration calorimetry: enthalpy of melittin partitioning into SUVs; type: physicochemical; conditions: POPC SUVs, 25°C; ITC, 10 μl of 100 μM melittin into 5 mM lipid
[6] = Hydrophobic-effect free energy ΔG hϕ calculated from measured heat capacity; type: physicochemical; conditions: for hydrophobic free energy ΔG hϕ: calculated from measured heat capacity
[7] = cited from earlier work
[8] = type: physicochemical; conditions: all lipid mixtures; van't Hoff analysis of CD partitioning data

## melittin
[1]
  free energy of partitioning of unfolded melittin into the bilayer interface of POPC vesicles: −6 to −7 kcal mol^−1
[2]; LUVs at different lipid content, slope of enthalpy vs temperature (Fig. 4b)
  change of heat capacity: about −0.5 kcal/molK
[2]; POPC 50%:POPG 50% LUVs, 25°C
  −TΔS: −2.8 (±1) kcal mol^−1
[2]; POPC 50%:POPG 50% LUVs, 40°C
  −TΔS: 3.08 (±1) kcal mol^−1
[2]; POPC 50%:POPG 50% LUVs, 50°C
  −TΔS: 8.73 (±1.1) kcal mol^−1
[2]; POPC 50%:POPG 50% LUVs, 60°C
  −TΔS: 16.99 (±1.5) kcal mol^−1
[2]; POPC 75%:POPG 25% LUVs, 25°C
  −TΔS: −4.42 (±0.6) kcal mol^−1
[2]; POPC 75%:POPG 25% LUVs, 40°C
  −TΔS: 3.24 (±0.8) kcal mol^−1
[2]; POPC 75%:POPG 25% LUVs, 50°C
  −TΔS: 8.32 (±0.4) kcal mol^−1
[2]; POPC 75%:POPG 25% LUVs, 60°C
  −TΔS: 15.06 (±1.1) kcal mol^−1
[2]; POPC 90%:POPG 10% LUVs, 25°C
  −TΔS: −5.9 (±1.5) kcal mol^−1
[2]; POPC 90%:POPG 10% LUVs, 40°C
  −TΔS: −2.25 (±0.9) kcal mol^−1
[2]; POPC 90%:POPG 10% LUVs, 50°C
  −TΔS: 3.3 (±1) kcal mol^−1
[2]; POPC 90%:POPG 10% LUVs, 60°C
  −TΔS: 5.73 (±1.1) kcal mol^−1
[2]; POPC 100%:POPG 0% LUVs, 40°C
  −TΔS: −12.3 (±1.6) kcal mol^−1
[2]; POPC 100%:POPG 0% LUVs, 50°C
  −TΔS: −6.2 (±1.4) kcal mol^−1
[2]; POPC 100%:POPG 0% LUVs, 60°C
  −TΔS: −3.2 (±1.3) kcal mol^−1
[2]; all lipid mixtures (POPC:POPG 0–50% POPG), independent of lipid composition
  heat capacity associated with partitioning: about −0.5 kcal mol^−1 K^−1
[3]
  fraction of melittin bound: 95%
[4]; POPC50:POPG50, 5°C, CD
  fraction of peptide bound: ≈ 0.57
[4]; POPC50:POPG50 LUVs
  peptide helical fraction f α: 0.71
[4]; POPC75:POPG25 LUVs
  peptide helical fraction f α: 0.73
[4]; POPC90:POPG10 LUVs
  peptide helical fraction f α: 0.71
[4]; POPC LUVs, Luo and Baldwin formula
  peptide helical fraction f α: 0.71
[4]; melittin bound to a lipid membrane at 25°C, CD
  α-helical content: ~ 70%
[4]; pure POPC, 5°C, CD
  helical fraction of peptide (or the fraction of peptide bound): ≈ 0.57
[4]; pure POPC, 60°C, CD
  fraction of peptide bound: ≈ 0.63
[5]
  enthalpy change, before corrections: ≈ −10 kcal mol^−1
[6]; POPC
  T h (temperature at which ΔH hϕ has a bulk-phase transfer value of 0): 326 K
  T s (temperature at which ΔS hϕ has a bulk-phase transfer value of 0): 336 K
[6]; POPC50:POPG50
  T h: 292 K
  T s: 305 K
[6]; POPC50:POPG50, 25°C
  hydrophobic free energy ΔG hϕ: −7.50 (±0.52) kcal mol^−1
[6]; POPC75:POPG25
  T h: 294 K
  T s: 306 K
[6]; POPC75:POPG25, 25°C
  hydrophobic free energy ΔG hϕ: −6.87 (±0.30) kcal mol^−1
[6]; POPC90:POPG10
  T h: 296 K
  T s: 316 K
[6]; POPC90:POPG10, 25°C
  hydrophobic free energy ΔG hϕ: −6.68 (±0.22) kcal mol^−1
[6]; POPC, 25°C
  contribution of the hydrophobic effect to the total free energy: approximately 79%
  hydrophobic free energy ΔG hϕ: −4.88 (±2.83) kcal mol^−1
[7]; formal peptide charge as stated, no reference given
  electrical valence (formal valence): 5–6
[7]; literature value, ref Beschiaschvili and Baeuerle 1991
  effective charge: ≈ 2
[8]
  heat capacity change: approximately −0.5 kcal mol^−1 K^−1
